The results in this text go back to patent publication US20260258115A1 (MAPP BIOPHARMACEUTICAL, published 2026).

What all share (experiment): BLI, IgG
In general terms: In BLI a coated tip is dipped into the sample, and binding shifts an interference pattern.

For assay [1], the target named is RSV prefusion F (preF), subtype A (respiratory syncytial virus, subtype A, UniProt P03420 26-513).
The target in assay [2] is RSV prefusion F (preF), subtype B (respiratory syncytial virus, subtype B).
The target of assay [3] is T1, RSV postfusion F (postF), subtype A (respiratory syncytial virus, subtype A, UniProt P03420 26-513).
T1 construct: also called F ΔFP; Postfusion subtype A

Usually Kd stands for a measure of binding affinity in units of concentration. Low readings indicate tighter binding, high ones weaker binding.

Residue numbers refer to the chain shown, from its start.

B1: ADI-14400 (antibody, V domains shown)
VH: QVQLVQSGGGVVQPGRSLRLSSAASGFTFSSYAMHWVRQAPGKGLEWVAVISHDGSKYYADSVKGRFTISRDNSKSTLNLQMNSLRPEDTAVYYCARGGDVRLYDDSNGYHYDTYYFDYWGQGTLVTVSS
VL: EIVLTQSPSSLSASVGDRVTITCRASQGIRNDLGWYQQKPGKAPKLLIYAASTLQSGVPSRFSGSGSGTDFTLTISSLQPEDFATYYCLQDYNYPLTFGGGTKVEIK
notes: also called Ab 66
Turning to B1, the results for the Kd in assay [1] and in assay [2] were 0.29 nM and 0.451 nM, respectively. Also, the binding result in assay [3] is given as “no binding”.

B2: ADI-14420 (antibody, V domains shown)
VH: EVQLVESGGVVVQPGGSLRLSCAASGFNFDDYAMHWVRQAPGKGLEWVSLISWDGGNTYYSDSVKGRFTISRDNGKNSLYLQMNSLRAEDTALYYCAKDIDRYSGYDYVFHYWGQGTLVTVSS
VL: DIRLTQSPSTLSAYVGDRVTITCRASQSISSWLAWYQQKPGKAPKLLIYKASSLESGVPSRFTGSGSGTEFTLTISGLQPDDFATYYCQQYNSYSTFGGGTKVDIK
notes: also called Ab 86
With B2, the Kd turned out to be 6.35 nM in assay [1] and 4.32 nM in assay [2]. The binding result in assay [3] is given as “no binding”.

B3: ADI-14401 (antibody, V domains shown)
VH: QVQLVQSGGGLVKPGGSLRLSCAASGFTFSSYSMHWVRQAPGKGLEWVSSISASSSYLNYADSVKGRFTISRDNAKKSLYLQLNTLRADDTAVYYCAREDHDSGTYYLNWFDPWGQGTLVTVSS
VL: QSVVTQPPSVSGAPGQRVTISCTGSSSNIGAGYDVHWYQQFPGTGPKLLIYGNSHRPSGVPDRFSGSKSGPSASLAITGLQAEDEADYYCQSYDSSLSGYVFGTGTKVTVL
notes: also called Ab 67
Take B3: the values for the Kd in assay [1] and in assay [2] were 1.19 nM and 2.17 nM, respectively. In addition, the binding result in assay [3] was “no binding”.

B4: ADI-14422 (antibody, V domains shown)
VH: QVQLVQSGAEVKKPGSSVKVSCKASGGTFSSYTINWVRQAPGQGLEWMGRIIPILGIANYAQKFQGRVTITADKSTSTAYMELSSLRSEDTAVYYCARRHQDTYGMDVWGQGTTVTVSS
VL: B3 VL with V4L, F41L, G45A, H55N, P71T, Y100S, T104G
notes: also called Ab 88
As for B4, the Kd in assay [1] came to 11.4 nM; in assay [2] it was 33.9 nM; in assay [3], 4.76 nM.

B5: ADI-14407 (antibody, V domains shown)
VH: QVQLVQSGGGVVQPGRSLRLSCAASGFTFSSYGMHWVRQAPGKGLEWVAVIWFDGNNKEYADSVKGRFAISRDNSKNTLYLQMNSLRAEDTAVYYCARDLIPVTIFGVVNPYSYYGMDVWGQGTTVTVSS
VL: EIVMTQSPSSLSASVGDRVTITCRASQSISTYLNWYQQKPGTAPKLLIYAASSLESGVPSRLSGSGSGTEFILTISSLQREDFATYYCQQSYSTPPTFGQGTKVEIK
notes: also called Ab 73
On to B5, for which the Kd in assay [1] turned out to be 6.28 nM; in assay [2], 11.4 nM; in assay [3] it was 0.378 nM.

B6: ADI-14576 (antibody, V domains shown)
VH: QVQLVQSGAEVKKPGASVKVSCKASGYTFTSYGISWVRQAPGQGLEWMGWISAYNGNTNYAQKLQGRVTMTTDTSTSTAYMELRSLRSDDTAVYYCARDPPVIAAGDFQHWGQGTLVTVSS
VL: DIVLTQSPLSLPVTLGQPASISCRSSQSLVHSDGNTYLNWFQQRPGQSPRRLIYKVSNRDSGVPDRFSGSGSGTDFTLKISRVEAEDVGVYYCMQGTHWPPDFGQGTRLEIK
Regarding B6, the figures for the Kd in assay [1] and in assay [2] were 6.97 nM and 19.3 nM, respectively. In addition, in assay [3], the binding result was “no binding”.

B7: ADI-14423 (antibody, V domains shown)
VH: EVQLVESGGVVIQPGGSLRLSCAASGFNFDDYSMHWVRQAPGKGLEWVSLISWDGGITYYADSVKGRFTISRDNGKKSLYLQMNSLRTEDTALYYCAKDIDIYSDYAGYFDYWGQGTLVTVSS
VL: DIRMTQSPSSLSASVGDRVTITCRASQGIRNDLGWYQQKPGKAPKRLIYAASSLQSGVPSRFSGSGSGTEFTLTISSLQPEDFATYYCLQHNSYPFTFGQGTRLEIK
notes: also called Ab 89
As for B7, the Kd stood at 9.65 nM in assay [1] and 3.4 nM in assay [2]. Besides, in assay [3], the binding result is listed as “no binding”.

B8: ADI-14399 (antibody, V domains shown)
VH: EVQLLESGPGLVKPSQTLSLTCAVSGGSINSGRYSWSWIRQPPGKGLEWIGYIYYSGTTYYNPSLESRVTISRDTSKNQFSLNLSSVTAADTAVYYCARTNSADSYASGSHYIRPQYFDFWGQGTLVTVSS
VL: DIQLTQSPATLSLSPGERATLSCRASQSVSSYLAWYQQKPGQAPRLLIYGASNRATGIPARFSGSGSGTDFTLTISRLEPEDFAVYYCQQRSNWLTFGGGTKVEIK
notes: also called Ab 65
In the case of B8, the Kd was found to be 0.189 nM in assay [1] and 0.365 nM in assay [2]. In addition, in assay [3], the binding result is on record as “no binding”.

B9: ADI-21010 (antibody, V domains shown)
VH: EVQLVESGGGVVQPGRSLRLSCAASGFSFSTYGMHWVRQAPGKGLEWVGVIWYDETTKYYADSVKGRFSISRDNSKNMVYVQMNSLRADDTALYYCAREVWGGVFDIWGQGTTVTVSS
VL: DIQMTQSPATLSASVGDRVTITCRASQNIVTWLAWYQQKPGKAPNLLIYKASSLESGVPSRFSGSGSGTEFTLTISSLQPDDFATYYCQHYNSYSGAFGQGTKVDIK
For B9, the affinity in assay [1], expressed as Kd, was 3.58 nM. For the same molecule, the binding result in assay [3] was “no binding”.

B10: ADI-14396 (antibody, V domains shown)
VH: EVQLVESGGGVVQPGRSLRLSCAASGFTFSSYAMHWVRQAPGKGLEWVAVISYDGSNKYYADSVKGRFTISRDNSKNTLYLQMNSLRAEDTAVYYCARELRYFDWEYGGMDVWGQGTTVTVSS
VL: EIVLTQSPSSLSASVGDRVTITCQASQDISNYLNWYQQKPGKAPKLLIYDASNLETGVPSRFSGSGSGTDFTFTISSLQPEDIATYYCQQYDNLPMYTFGQGTKLEIK
notes: also called Ab 63
Regarding B10, the binding result in assay [1] and in assay [3] was “no binding” each time. Further, binding in assay [2] was put at a Kd of 15.5 nM.

B11: ADI-14410 (antibody, V domains shown)
VH: QVQLQQWGAGLLKPSETLSLTCAIYSGSFSGYYWSWIRQPPGKGLEWIGQINYSGSAYYTPSLKSRVTISVDTSKNQFSLKLSSVTAADTAVYYCARVRITMVQGAIVPCAIDVWGQGTTVTVSS
VL: SYELTQPPSASGTPGQRVTISCSGSSSNIESNFVYWYQQLPGTAPKLLIHRNDQRPSGVPDRFSGSKSGTSASLAISGLRSEDEADYSCAAWDDSLSGVVFGGGTKVTVL
notes: also called Ab 76
Take B11: the Kd in assay [1] came out at 3.77 nM; in assay [2] it was 17.1 nM. Further, the binding result in assay [3] is listed as “no binding”.

B12: ADI-14411 (antibody, V domains shown)
VH: QVQLVQSGAEVKKPGASVKLSCKASGYTFTRFYIHWVRQAPGQGLEWMGIINPSGGGTSYAQNFQDRVTMTRDTSTSTVYMELSSLRSEDTAVYYCARNGYSTRSLQNNWFDPWGQGTLVTVSS
VL: ETTLTQSPSSLSASVGDRVTITCRASQSIDNYLNWYQQKPGKAPKLLIYEASSLQSGVPSRFSGSGSGTDFTLTISSLQPEDFATYYCQQTYSSLPYTFGQGTKVEIK
notes: also called Ab 77
As to B12, the Kd in assay [1] amounted to 6.12 nM; in assay [2], 3.92 nM. For the same molecule, the binding result in assay [3] was “no binding”.

B13: ADI-14409 (antibody, V domains shown)
VH: QVQLVQSGGEVKKPGASVKVSCKASGYTFTYYGISWVRQAPGQGLEWMGWISAYNGNTNYEQKFQGRVTMTTDTSTGTAYMELRSLTSDDTAVYYCARDRIVVVTAANYYGLDVWGQGTTVTVSS
VL: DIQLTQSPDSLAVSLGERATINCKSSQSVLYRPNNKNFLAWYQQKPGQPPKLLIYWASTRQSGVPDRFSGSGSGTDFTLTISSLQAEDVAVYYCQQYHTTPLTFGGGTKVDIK
notes: also called Ab 75
B13: the Kd in assay [1] came out at 0.15 nM; in assay [2], 0.289 nM. Further, the binding result in assay [3] was “no binding”.

B14: ADI-14413 (antibody, V domains shown)
VH: EVQLVESGGVVVQPGGSLRLSCAASGFNFDDYSMHWVRQAPGKGLEWVSVISWDGGITYYADSVKGRFTMSRDNGKKSLYLQMNSLRTEDTAVYYCGKDGDIYSSSSAGIDYWGQGTLVTVSS
VL: SYVLTQPPSASGTPGQRVIISCSGSSSNIGSHTVKWYQQLPGTAPKLLIDRNNQRPSGVPDRFSGPKSGTSASLAISGLQSEDEADYYCASWDDSLNGPVFGGGTQLTVL
notes: also called Ab 79
As to B14, the Kd in assay [1] came to 5.45 nM; in assay [2], 2.71 nM. Also, in assay [3], the binding result is “no binding”.

B15: ADI-14408 (antibody, V domains shown)
VH: QVQLVQSGPALVKTTQTLTLTCTFSGFSLTTSGMCVSWIRQPPGKALEWLARIDWDDDKYYSTSLKTRLTISKDTSKNQVVLTLTNVDPVDTATYYCARMQKYDSSGYYLHYFDSWGQGTLVTVSS
VL: DIRLTQSPSSLSASVGDRVTIACRASQSISSYLNWYQQKPGKSPKVLIYAASILQTGVPSRFSGSGSGTDFTLTISSLQPEDFATYYCQQSYSINQYTFGQGTKVEIK
notes: also called Ab 74
In the case of B15, the Kd in assay [1] is 8.53 nM; in assay [2], 12.8 nM; in assay [3] it was 2.14 nM.

B16: ADI-21041 (antibody, V domains shown)
VH: EVQLVESGGVVVQPGGSLRLSCAASGFTFDDYTMHWVRQAPGKGLEWVSLISWVGDTTYYADSVKGRFTISRDNSKNSLYLQMNSLRTEDTALYYCAKGGYYDGSGYYYFDYWGQGTLVTVSS
VL: DIRLTQSPSSLSASVGDRVTITCRASQSISNYLNWYQQKPGKAPKLLMYAASSLQSGVPSRFSGSGSGTDFTLTISSLQPEDFATYSCQQSYSTPYTFGQGTKVEIK
The molecule B16 yielded a Kd in assay [1] of 7.3 nM. Also, the binding result in assay [3] was “no binding”.

B17: ADI-14414 (antibody, V domains shown)
VH: QVQLVQSGAEVKKPGSSMKVSCKASGGSFSSYGISWLRQAPGQAPEWMGGIIPIFGTINYAQKFQGRITISADESTSTVYMELSSLRIEDTAVYYCARDGRTSPRYYGWDVWGQGTTVTVSS
VL: DIRLTQSPATLSLSPGDRATLSCRASQSLYTYLSWYQQKPGQAPRLLIYDASNRATGIPARFSGSGSGTDFTLTISSLEPEDFAVYYCHYRSNWPPCTFGGGTKVDIK
notes: also called Ab 80
In the case of B17, the Kd in assay [1] turned out to be 5 nM; in assay [2] it was 3.07 nM. Besides, the binding result in assay [3] was “no binding”.

B18: ADI-14415 (antibody, V domains shown)
VH: EVQLVESGPGLVKPSETLSLTCTVSGGSISNYYWTWIRQPPGEGLEWIGYIYYTGSTNYNPSLKNRVTISVDTPKNQFSLKLNSVTAADTAVYYCARGWGYSYGYESYYNGLDVWGQGTTVTVSS
VL: DIQLTQSPSFLSASVGDRVTITCRASQGISSYLAWYQLKPGKAPKLLIYAAATLETGVPSRFSGSGSGTEFTLTISGLQPEDFATYYCQQLNSFPFTFGPGTKVEIK
notes: also called Ab 81
Regarding B18, the Kd is 4.2 nM in assay [1] and 3.51 nM in assay [2]. For the same molecule, in assay [3], the binding result was “no binding”.
